Assay results from patent publication US8652467B2, “Dek protein compositions and methods of using the same” (The Regents of the University of Michigan, priority 2005, dated 2014).
Entries after “also recorded” stand apart in the source; their conditions may differ.

System: monocyte-depleted peripheral white blood cells
Experiment: In vitro migration assay with monocyte-depleted peripheral white blood cells
Format: cell-based, human
Procedure: (A). […] Day 12 MDM grown in 10% serum were maintained for 12 h in serum-free conditioned media alone or with 10 ng/ml of recombinant IL-8. Supernatants were harvested, and secreted DEK detected in the supernatant by Western blot using DEK-specific monoclonal antibody. (B). DEK is a chemoattractant. Monocyte-depleted peripheral white blood cells were prepared. 1×10^5 cells in 100 μl RPMI were placed in the upper chambers of a 24-well chemotaxis microchamber plate with pore size of 3 μM. Lower chambers contained RPMI medium with various concentrations of recombinant DEK (made in baculovirus), recombinant GLI-2 control protein (also made in baculovirus), or no protein control (C′). After 1 h, the number of fluorescently labeled migrating cells in the lower chamber was determined at 485 nM/535 nm wavelengths by Tecan GENios (Phenix, Austria). The results are expressed as the average fold increase of the number of cells migrating toward DEK or GLI-2 compared to control wells containing medium only. Data shown using 34 nM and 68 nM DEK are the average of three different donors, while data using 136 nM DEK are the average of six different donors. […] (C). […] Fluorescence profiles were recorded by FACS analysis. The results are expressed as the average fold increase of the percentage of cells migrating toward DEK vs. control wells containing medium only. […]

B1: DEK: full-length recombinant DEK protein produced in baculovirus (protein, UniProt P35659 1-375, looked up)
chain: MSASAPAAEGEGTPTQPASEKEPEMPGPREESEEEEDEDDEEEEEEEKEKSLIVEGKREKKKVERLTMQVSSLQREPFTIAQGKGQKLCEIERIHFFLSKKKTDELRNLHKLLYNRPGTVSSLKKNVGQFSGFPFEKGSVQYKKKEEMLKKFRNAMLKSICEVLDLERSGVNSELVKRILNFLMHPKPSGKPLPKSKKTCSKGSKKERNSSGMARKAKRTKCPEILSDESSSDEDEKKNKEESSDDEDKESEEEPPKKTAKREKPKQKATSKSKKSVKSANVKKADSSTTKKNQNSSKKESESEDSSDDEPLIKKLKKPPTDEELKETIKKLLASANLEEVTMKQICKKVYENYPTYDLTERKDFIKTTVKELIS
modifications: full-length
notes: full-length recombinant DEK protein produced in baculovirus
With B1 the “migration of CD8+ cells and CD56+ cells towards DEK” value (79 nM DEK, 1 hour, FACS analysis, vs medium only) was “statistically significant” and the “migration of white blood cells toward DEK” value (34, 68, 136 nM DEK in lower chamber, 1 h, vs GLI-2 control protein or media alone) was “statistically significant; also recorded: increase in a dose-dependent fashion”.
